Measurements: PMC5673899, “Structural basis for receptor recognition of pollen tube attraction peptides” (Nature Communications, 2017)
Entries after “also recorded” stand apart in the source; their conditions may differ.

Assays:
[1] = test system: AtPRK3^LRR and AtPRK6^LRR; assay: Gel filtration assay, AtPRK3^LRR-AtPRK6^LRR interaction in the presence of AtLURE1.2; assay type: binding, Arabidopsis
Experimental: The AtPRK6^LRR and AtLURE1.2 proteins purified as described above were subjected to gel filtration (Hiload 200, GE Healthcare) in buffer containing 10 mM Bis-Tris pH 6.0 and 100 mM NaCl. A mixture of the purified AtPRK6^LRR and AtLURE1.2 proteins with a molar ratio of about 1:3 were incubated in 4 °C for 30 min before gel filtration analysis. Samples from relevant fractions were applied to SDS-PAGE and visualized by Coomassie blue staining. Similar procedures were used to verify the interaction of AtLURE1.2 with the other LRR proteins. […]
the presence or absence of AtLURE1.2 in vitro. […]
assay. Left panel: gel-filtration profile of the AtPRK3LRR and AtPRK6LRR proteins.
A280 (mAU), […] at 280 nm. Right panel: Coomassie blue staining of the peak fractions shown on the top following SDS–PAGE. M, molecular weight ladder (kDa). Numbers on top of SDS-PAGE indicate elution […]
AtLURE1.2 under gel filtration assay. The assays were performed as described in […]
(1 picture or pasted object on this page, not shown here)

[2] = molecular target: AtPRK6^LRR; assay: ITC, AtLURE1.2 titrated into AtPRK6^LRR; set-up: species or system Arabidopsis thaliana; settings: MicroCalorimeter ITC200, 25 °C, 200 mM HEPES pH 7.0, 100 mM NaCl, ~0.9 mM AtLURE1.2 into 0.08 mM AtPRK6^LRR, 20 × 2 μl at 2.5-min intervals, insect cell proteins, read-out: dissociation constant / binding affinity
From the text: (§1) The genes of AtPRK3 ^LRR (residues 1–241), AtPRK4 ^LRR (residues 1–277), AtPRK5 ^LRR (residues 1–279), AtPRK6 ^LRR (residues 1–262), MIK1 ^LRR (residues 1–633), MIK2 ^LRR (residues 1–707) were amplified from Arabidopsis cDNA library by PCR and cloned into pFastBac-1 vector with a C-terminal 6 × His-tag. Their identities were confirmed by sequencing. The mature form of AtLURE1.1 (residues 20–94), AtLURE1.2 (residues 20–90), AtLURE1.3 (residues 21–91), and AtLURE1.4 (residues 20–90) were cloned into pFastBac-1 vector, with a modified N-terminal hemolin signal peptide and 6 × His-SUMO tag. Point mutation constructs were generated by QuickChange Site-Directed Mutagenesis Kit (Strategene). All the proteins were expressed using the Bac-to-Bac baculovirus expression system (Invitrogen) in High Five cells at 22 °C. One liter of High Five cells (2.0 × 10^6 cells mL^−1) cultured in the medium from Expression Systems was infected with 25 ml recombinant baculovirus and the media was collected after 72 h of infection. Secreted LRR proteins were purified using Ni-NTA (Novagen) and size-exclusion chromatography (Hiload 200, GE Healthcare) in buffer containing 10 mM Bis-Tris pH 6.0 and 100 mM NaCl. The His-SUMO tag of the AtLURE proteins was removed by Prescission Protease at 4 °C overnight in buffer containing 25 mM Tris pH 8.0 and 150 mM NaCl. […]

[3] = test system: PRK6 N239A; assay: In vitro pull-down with AtPRK6^LRR mutant N239A; assay type: binding, Arabidopsis thaliana
From the text: as §1, with “NaCl.” for “NaCl. The His-SUMO tag of the AtLURE proteins was removed by Prescission Protease at 4 °C overnight in buffer containing 25 mM Tris pH 8.0 and 150 mM NaCl.”
(§2) The purified His-tagged ectodomains of AtPRK proteins and MIK1, 2 were used to pull-down the AtLURE1.2 peptide. […] All the eluted samples were analyzed by SDS-PAGE and visualized by Coomassie blue staining. […]

[4] = test system: MIK1^LRR; assay: ITC, AtLURE1.2 titrated into MIK1^LRR; assay type: binding, Arabidopsis; settings: 25 °C, 200 mM HEPES pH 7.0, 100 mM NaCl, twenty injections of 0.5 mM AtLURE1.2 into 0.05 mM MIK1LRR
From the text: as §1, with “NaCl.” for “NaCl. The His-SUMO tag of the AtLURE proteins was removed by Prescission Protease at 4 °C overnight in buffer containing 25 mM Tris pH 8.0 and 150 mM NaCl.”
Supplementary Figure 6: Binding affinity between MIK1LRR, MIK2LRR and AtLURE1.2 was not detected in ITC assay. […]

[5] = test system: MIK2^LRR; assay: In vitro pull-down with MIK2^LRR; assay type: binding, Arabidopsis; settings: Ni-NTA, excess AtLURE1.2, on ice 30 min, washed five times; SDS-PAGE, Coomassie blue
From the text: as §1, with “NaCl.” for “NaCl. The His-SUMO tag of the AtLURE proteins was removed by Prescission Protease at 4 °C overnight in buffer containing 25 mM Tris pH 8.0 and 150 mM NaCl.”
as §2

[6] = test system: MIK1^LRR; assay: In vitro pull-down with MIK1^LRR; assay type: binding, Arabidopsis; settings: Ni-NTA, excess AtLURE1.2, on ice 30 min, washed five times; SDS-PAGE, Coomassie blue
From the text: as §1, with “NaCl.” for “NaCl. The His-SUMO tag of the AtLURE proteins was removed by Prescission Protease at 4 °C overnight in buffer containing 25 mM Tris pH 8.0 and 150 mM NaCl.”
as §2

B1: AtLURE1.2: mature form of AtLURE1.2 (residues 20–90), defensin-like cysteine-rich peptide expressed in insect cells (protein)
chain: TLINGSSDEERTYSFSPTTSPFDPRSLNQELKIGRIGYCFDCARACMRRGKYIRTCSFERKLCRCSISDIK
modifications: left off: His6, N-terminal, cleaved | SUMO, N-terminal, cleaved
notes: mature form of AtLURE1.2 (residues 20–90), defensin-like cysteine-rich peptide expressed in insect cells
[1]
  AtPRK3^LRR-AtPRK6^LRR complex formation in the presence of AtLURE1.2: do not form a complex; also recorded: failed to detect AtPRK6^LRR−AtPRK3^LRR interaction
[2]
  Kd: ~3 µM
[3]
  AtLURE1.2 binding activity of receptor mutant: still retained the AtLURE1.2 binding activity
[4]
  binding in ITC: not detected; also recorded: no obvious heat was produced; also recorded: none of the purified AtPRK3^LRR, MIK1^LRR or MIK2^LRR proteins showed detectable interaction
[5]
  interaction in pull-down assay: none of the other LRR proteins was found to interact
[6]
  interaction in pull-down assay: none of the other LRR proteins was found to interact
